Laboratory results from PMC2909962, “Integrin αvβ5 is a primary receptor for adenovirus in CAR-negative cells” (Virology Journal, 2010).

Target: Adenovirus Serotype 5, replication incompetent, E1A deleted, expressing GFP (Ad5-GFP), whole virus (human adenovirus serotype 5, UniProt P12538 1-571); P11818 1-581; P04133 1-952, Whole virion. Only the three major capsid proteins named in the paper are given, as wild type: penton base (5 at each of 12 vertices), fiber (trimer at each vertex), hexon (240 trimers; the paper prin)
Assay: ELISA; cell-based: MDA-MB-435 cells in 96-well poly-D-lysine plates, incubated with whole Ad5 at varying concentrations for 18 hrs at 4°C, washed, fixed; bound virus detected with polyclonal rabbit anti-Ad5 and an ELISA amplification system; fit to the Langmuir binding isotherm
Conditions: one partner purified

B1: Integrin αvβ5 (receptor)
chain 1: FNLDVDSPAEYSGPEGSYFGFAVDFFVPSASSRMFLLVGAPKANTTQPGIVEGGQVLKCDWSSTRRCQPIEFDATGNRDYAKDDPLEFKSHQWFGASVRSKQDKILACAPLYHWRTEMKQEREPVGTCFLQDGTKTVEYAPCRSQDIDADGQGFCQGGFSIDFTKADRVLLGGPGSFYWQGQLISDQVAEIVSKYDPNVYSIKYNNQLATRTAQAIFDDSYLGYSVAVGDFNGDGIDDFVSGVPRAARTLGMVYIYDGKNMSSLYNFTGEQMAAYFGFSVAATDINGDDYADVFIGAPLFMDRGSDGKLQEVGQVSVSLQRASGDFQTTKLNGFEVFARFGSAIAPLGDLDQDGFNDIAIAAPYGGEDKKGIVYIFNGRSTGLNAVPSQILEGQWAARSMPPSFGYSMKGATDIDKNGYPDLIVGAFGVDRAILYRARPVITVNAGLEVYPSILNQDNKTCSLPGTALKVSCFNVRFCLKADGKGVLPRKLNFQVELLLDKLKQKGAIRRALFLYSRSPSHSKNMTISRGGLMQCEELIAYLRDESEFRDKLTPITIFMEYRLDYRTAADTTGLQPILNQFTPANISRQAHILLDCGEDNVCKPKLEVSVDSDQKKIYIGDDNPLTLIVKAQNQGEGAYEAELIVSIPLQADFIGVVRNNEALARLSCAFKTENQTRQVVCDLGNPMKAGTQLLAGLRFSVHQQSEMDTSVKFDLQIQSSNLFDKVSPVVSHKVDLAVLAAVEIRGVSSPDHVFLPIPNWEHKENPETEEDVGPVVQHIYELRNNGPSSFSKAMLHLQWPYKYNNNTLLYILHYDIDGPMNCTSDMEINPLRIKISSLQTTEKNDTVAGQGERDHLITKRDLALSEGDIHTLGCGVAQCLKIVCQVGRLDRGKSAILYVKSLLWTETFMNKENQNHSYSLKSSASFNVIEFPYKNLPIEDITNSTLVTTNVTWGIQPAPMPVPVWVIILAVLAGLLLLAVLVFVMYRMGFFKRVRPPQEEQEREQLQPHENGEGNSET
chain 2: GLNICTSGSATSCEECLLIHPKCAWCSKEDFGSPRSITSRCDLRANLVKNGCGGEIESPASSFHVLRSLPLSSKGSGSAGWDVIQMTPQEIAVNLRPGDKTTFQLQVRQVEDYPVDLYYLMDLSLSMKDDLDNIRSLGTKLAEEMRKLTSNFRLGFGSFVDKDISPFSYTAPRYQTNPCIGYKLFPNCVPSFGFRHLLPLTDRVDSFNEEVRKQRVSRNRDAPEGGFDAVLQAAVCKEKIGWRKDALHLLVFTTDDVPHIALDGKLGGLVQPHDGQCHLNEANEYTASNQMDYPSLALLGEKLAENNINLIFAVTKNHYMLYKNFTALIPGTTVEILDGDSKNIIQLIINAYNSIRSKVELSVWDQPEDLNLFFTATCQDGVSYPGQRKCEGLKIGDTASFEVSLEARSCPSRHTEHVFALRPVGFRDSLEVGVTYNCTCGCSVGLEPNSARCNGSGTYVCGLCECSPGYLGTRCECQDGENQSVYQNLCREAEGKPLCSGRGDCSCNQCSCFESEFGKIYGPFCECDNFSCARNKGVLCSGHGECHCGECKCHAGYIGDNCNCSTDISTCRGRDGQICSERGHCLCGQCQCTEPGAFGEMCEKCPTCPDACSTKRDCVECLLLHSGKPDNQTCHSLCRDEVITWVDTIVKDDQEAVLCFYKTAKDCVMMFTYVELPSGKSNLTVLREPECGNTPNAMTILLAVVGSILLVGLALLAIWKLLVTIHDRREFAKFQSERSRARYEMASNPLYRKPISTHTVDFTFNKFNKSYNGTVD
notes: integrin alpha-V subunit, human, endogenous on the surface of MDA-MB-435 and MCF7 cells; integrin beta-5 subunit, human, endogenous on the surface of MDA-MB-435 and MCF7 cells; no isolated integrin was used; source: endogenous, on MDA-MB-435 and MCF7 cells
- Kd: 0.14 nM
